Experimental data reported in US10590192B2, “Midkine antibody” (Cellmid Limited, priority 2014, dated 2020).

T1: recombinant human MK (huMK) (Homo sapiens, UniProt P21741)
T1 sequence (P21741 21-143): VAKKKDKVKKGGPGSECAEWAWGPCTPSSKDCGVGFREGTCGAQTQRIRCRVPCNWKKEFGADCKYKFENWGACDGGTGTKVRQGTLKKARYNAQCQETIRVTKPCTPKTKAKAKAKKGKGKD

T2: murine MK (muMK) (Mus musculus, UniProt P12025)
T2 sequence (P12025 23-140): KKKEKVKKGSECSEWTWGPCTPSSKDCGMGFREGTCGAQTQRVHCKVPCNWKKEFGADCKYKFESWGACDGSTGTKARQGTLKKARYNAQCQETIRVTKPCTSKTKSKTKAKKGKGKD

B1: IP14-H3L4: humanised IP14 antibody: VH SEQ ID NO: 4, VL SEQ ID NO: 13 (antibody, V domains shown)
VH: QVQLVQSGAEVKKPGASVKVSCKASGQSFSSYWMNWVRQAPGQGLEWMGMIHPSDSETILNQKFKDKVTMTRDTSTSTVYMELSSLRSEDTAVYYCARWSAKRGDFWGQGTLVTVSS
VL: EIVLTQSPDFQSVTPKEKVNITCRASESISNNLHWYQQKPHQSPKLLIYYASQSISGVPSRFSGSGSGTDFNLTINSVEAEDAATYYCQQSNSWPLTFGGGTKLEIKR
modifications: Variable region heavy chain humanised variant 3 (VH3); Variable region light chain humanised variant 4 (VL4)
B2: IP14-H3L7: humanised IP14 antibody: VH SEQ ID NO: 4, VL SEQ ID NO: 16 (antibody, V domains shown)
VH: QVQLVQSGAEVKKPGASVKVSCKASGQSFSSYWMNWVRQAPGQGLEWMGMIHPSDSETILNQKFKDKVTMTRDTSTSTVYMELSSLRSEDTAVYYCARWSAKRGDFWGQGTLVTVSS
VL: DIVLTQSPATLSLSPGERANLSCRASESISNNLHWYQQKPHQAPRLLIYYASQSISGVPARFSGSGSGTDFNLTISSVEPEDFAVYYCQQSNSWPLTFGQGTKVEIKR
modifications: Variable region heavy chain humanised variant 3 (VH3); Variable region light chain humanised variant 7 (VL7)
B3: IP14-H3L8: humanised IP14 antibody: VH SEQ ID NO: 4, VL SEQ ID NO: 17 (antibody, V domains shown)
VH: QVQLVQSGAEVKKPGASVKVSCKASGQSFSSYWMNWVRQAPGQGLEWMGMIHPSDSETILNQKFKDKVTMTRDTSTSTVYMELSSLRSEDTAVYYCARWSAKRGDFWGQGTLVTVSS
VL: DIVLTQSPATLSLSPGERATLSCRASESISNNLHWYQQKPHQAPRLLIYYASQSISGVPARFSGSGSGTDFTLTISSVEPEDFAVYYCQQSNSWPLTFGQGTKVEIKR
modifications: Variable region heavy chain humanised variant 3 (VH3); Variable region light chain humanised variant 8 (VL8)
B4: IP14-H5L5: humanised IP14 antibody: VH SEQ ID NO: 6, VL SEQ ID NO: 14 (antibody, V domains shown)
VH: QVQLVQSGGGLVQPGGSLRLSCAASGQSFSSYWMNWVRQAPGQGLEWIGMIHPSDSETILNQKFKDKATLTVDISKNTAYLQMNSLRAEDTAVYYCSSWSAKRGDFWGQGTLVTVSS
VL: EIVLTQSPATLSLSPGERATLSCRASQGVSSNLAWYQQKPGQAPRLLIYDASNRATGIPARFSGSGPGTDFTLTISSLEPEDFAVYYCQQSNSWPLTFGQGTKVEIKR
modifications: Variable region heavy chain humanised variant 5 (VH5); Variable region light chain humanised variant 5 (VL5)
B5: IP14-H3L5: humanised IP14 antibody: VH SEQ ID NO: 4, VL SEQ ID NO: 14 (antibody, V domains shown)
VH: QVQLVQSGAEVKKPGASVKVSCKASGQSFSSYWMNWVRQAPGQGLEWMGMIHPSDSETILNQKFKDKVTMTRDTSTSTVYMELSSLRSEDTAVYYCARWSAKRGDFWGQGTLVTVSS
VL: EIVLTQSPATLSLSPGERATLSCRASQGVSSNLAWYQQKPGQAPRLLIYDASNRATGIPARFSGSGPGTDFTLTISSLEPEDFAVYYCQQSNSWPLTFGQGTKVEIKR
modifications: Variable region heavy chain humanised variant 3 (VH3); Variable region light chain humanised variant 5 (VL5)

Molecular target: T1, recombinant human MK (huMK)
Test: ELISA binding of humanised anti-MK antibodies to huMK
Conditions: ELISA, plates coated with 2 ug/mL huMK; read-out: Binding affinity for huMK, ELISA EC50
Procedure: (§1) The binding specificity and affinity of the humanised anti-MK antibodies to recombinant human MK (huMK) and murine MK (muMK) was assessed by ELISA. ELISA plates (Nunc Immuno MaxiSorp 96 well flat-bottom were coated with 100 uL of 2 ug/mL of either huMK or muMK in 2% BSA/PBS (overnight at room temperature). After washing, blocking (1 h at 37° C.), and washing again, the humanised anti-MK and chimeric antibodies described in Example 1 were analysed for binding to huMK or muMK at concentrations ranging between 3 μg/ml and 0.00004 μg/ml in 2% BSA/PBS (1 h at 37° C.). After washing, the binding of antibody was detected with goat anti-mouse IgG (Fab specific)-HRP conjugate (Sigma, Cat. No. A9917) and SigmaFast OPD substrate (Sigma, Cat. No. P9187). The reaction was stopped with 3 M HCl, absorbance read at 490 nm on a Dynex Technologies MRX TC II plate reader and the binding curves plotted. Binding affinity data for the humanised anti-MK antibodies to huMK and muMK are presented in Table 6 and Table 7 respectively, and in FIG. 3.
(§2) KD values for hIP14-H5L8, hIP14-H6L3 and hIP14-H6L8 was then compared with the KD values obtained for the corresponding murine IP14 precursor antibody and the chimeric antibody using the methods described in Example 2. […] Based on this finding, these candidate antibodies were produced to 100 mg scale to enable further testing in functional assays to determine biological function.

EC50, > 0.01 µM:
B1
B2
B3
B4
B5

Molecular target: T2, murine MK (muMK)
Test: ELISA binding of humanised anti-MK antibodies to muMK
Conditions: ELISA, plates coated with 2 ug/mL muMK; read-out: Binding affinity for muMK, ELISA EC50
Procedure: as §1, §2

EC50, > 0.01 µM:
B4
